Changes are numbered by the printed parent chain. Names and notes keep the numbering of the source.
Legend:
[1] = target: the molecule itself; assay: SEC; Superdex-200 size exclusion chromatography of secreted wild-type CaSR ECD; 20 mM Tris pH 8.0, 150 mM NaCl
[2] = target: the molecule itself; assay: SDS gel under reducing and non-reducing conditions; purified CaSR ECD mutant (N386Q, S402N, N468Q) after Superdex-200, with (+DTT) and without (-DTT) reducing agent
[3] = target: the molecule itself; assay: crystal structure; form I crystal, space group F222, one molecule per asymmetric unit, homodimer with a crystallographic symmetry-related molecule; 1.5 M Li2SO4, 100 mM Tris pH 8.5, 2 mM CaCl2, 20°C; inactive (open-open) state

B1: wild-type human CaSR ECD (domain or fragment, UniProt P41180 20-612, looked up)
chain: YGPDQRAQKKGDIILGGLFPIHFGVAAKDQDLKSRPESVECIRYNFRGFRWLQAMIFAIEEINSSPALLPNLTLGYRIFDTCNTVSKALEATLSFVAQNKIDSLNLDEFCNCSEHIPSTIAVVGATGSGVSTAVANLLGLFYIPQVSYASSSRLLSNKNQFKSFLRTIPNDEHQATAMADIIEYFRWNWVGTIAADDDYGRPGIEKFREEAEERDICIDFSELISQYSDEEEIQHVVEVIQNSTAKVIVVFSSGPDLEPLIKEIVRRNITGKIWLASEAWASSSLIAMPQYFHVVGGTIGFALKAGQIPGFREFLKKVHPRKSVHNGFAKEFWEETFNCHLQEGAKGPLPVDTFLRGHEESGDRFSNSSTAFRPLCTGDENISSVETPYIDYTHLRISYNVYLAVYSIAHALQDIYTCLPGRGLFTNGSCADIKKVEAWQVLKHLRHLNFTNNMGEQVTFDECGDLVGNYSIINWHLSPEDGSIVFKEVGYYNVYAKKGERLFINEEKILWSGFSREVPFSNCSRDCLAGTRKGIIEGEPTCCFECVECPDGEYSDETDASACNKCPDDFWSNENHTSCIAKEIEFLSWTEPF
modifications: heavily glycosylated
notes: signal peptide in the construct; human calcium-sensing receptor (CaSR), extracellular domain, residues 1-612; The C-terminal Flag tag is told for 'each construct' in the paragraph on the mutants; the wild type was also purified on anti-Flag M2 and held by anti-Flag M2 in the scintillation proximity assay with L-Trp (not a protein-protein experiment); also called wt-CaSR ECD; extracellular domain …
- binding result [1]: binds

B2: human CaSR ECD mutant carrying three glycosylation-site mutations (N386Q, S402N and N468Q) (domain or fragment, UniProt P41180 20-612, looked up)
chain: B1 chain with N367Q, S383N, N449Q
modifications: N-acetyl-glucosamine seen at Asn90, Asn287, Asn488, Asn541 of one protomer and Asn541 of the other
notes: signal peptide in the construct; human calcium-sensing receptor (CaSR), extracellular domain, residues 1-612; modelled residues 20-119, 135-359, 393-598 in one protomer and 22-122, 136-360, 392-602 in the other; Disulfide-tethered homodimer; cloned into the pFBDM vector; also called calcium-sensing receptor extracellular domain; form II crystal protein; source: sf9 insect cells infected with …
- binding result [2]: binds

B3: human CaSR ECD mutant carrying two glycosylation-site mutations (N386Q, S402N), partially deglycosylated with Endo H (domain or fragment, UniProt P41180 20-612, looked up)
chain: B1 chain with N367Q, S383N
modifications: partially deglycosylated with Endo H; N-acetyl-glucosamine seen at Asn261, Asn287, Asn446, Asn468, Asn488, Asn541, Asn594; inter-subunit disulfide bond formed by C129
notes: signal peptide in the construct; human calcium-sensing receptor (CaSR), extracellular domain, residues 1-612; modelled residues 21-130 and 136-603; Disulfide-linked homodimer; cloned into the pFBDM vector; also called calcium-sensing receptor extracellular domain; form I crystal protein; source: sf9 insect cells infected with baculovirus, with kifunensine, secreted
- binding result [3]: binds

Source: PMC4977154, “Structural mechanism of ligand activation in human calcium-sensing receptor” (eLife, 2016)
